Reference: doi:10.1101/2020.07.17.208231, “UMP inhibition and sequential firing in aspartate transcarbamoylase open ways to regulate plant growth” (bioRxiv, 2020)
Substitutions are numbered along the chain they refer to. Numbers in names are those of the source.

Columns and labels:
[1] = molecular target: the molecule itself; experiment: SEC-MALS; 400 ul purified protein at 1.4 mg/ml on Superdex 200 10/300 in GF buffer (20 mM Tris pH 7.0, 0.1 M NaCl, 2% glycerol, 0.2 mM TCEP); also the UMP-freed sample and the sample pre-incubated with PALA (Supplementary Fig. 4)
[2] = molecular target: the molecule itself; experiment: crystal structure; sitting-drop vapor diffusion at room temperature, PEG 3350 conditions; with UMP, apo, with PALA, with PALA and CP, with CP; molecular replacement with PDB 5G1O

B1: Arabidopsis aspartate transcarbamoylase, construct spanning aa 82-390 (atATC) (enzyme, Arabidopsis thaliana, UniProt P49077 82-390, looked up)
chain: FELSDVIEGKQFDREMLSAIFDVAREMEKIEKSSSQSEILKGYLMATLFYEPSTRTRLSFESAMKRLGGEVLTTENAREFSSAAKGETLEDTIRTVEGYSDIIVMRHFESGAARKAAATANIPVINAGDGPGEHPTQALLDVYTIQSEIGKLDGISVALVGDLANGRTVRSLAYLLAKFKDVKIYFVSPEIVKMKDDIKDYLTSSGVEWEESSDLMEVASKCDVVYQTRIQRERFGERLDLYEAARGKYIVDKDLLGVMQKKAIIMHPLPRLDEITADVDADPRAAYFRQAKNGLFIRMALLKLLLVGW
notes: aspartate transcarbamoylase (ATC; pyrB; At3g20330), Arabidopsis thaliana, aa 82-390 of the 390 aa precursor, i.e. without the N-terminal chloroplast transit peptide; Homotrimer; As purified it carries UMP captured during expression; a UMP-freed form was also made; also called WT; recombinant ATC; source: E. coli BLR(DE3)-pLysS, purified (Ni-sepharose, size-exclusion chromatography); not shown: …
- stoichiometry N [1]: 3

B2: atATC mutant F161A (enzyme, Arabidopsis thaliana, UniProt P49077 82-390, looked up)
chain: B1 chain with F80A
notes: aspartate transcarbamoylase (ATC; pyrB; At3g20330), Arabidopsis thaliana, aa 82-390 of the 390 aa precursor, with F161A in the CP-loop; Same construct as m1 with the point mutation F161A, made by site-directed mutagenesis; also called atATC-F161A; source: E. coli BLR(DE3)-pLysS, purified (Ni-sepharose, size-exclusion chromatography); not shown: 2.6 kDa fusion tag (from a modified pET28a plasmid)
- binding result [2]: binds
